Experimental data published in patent US9255256B2, “Expression of functional cytochorome P450 monooxygenase system in enterobacteria” (priority 1996, dated 2016).

What was measured:
CYP2D6 [1] = target: T1, CYP2D6 (Homo sapiens, UniProt P10635); experiment: Bufuralol 1′-hydroxylase assay, whole cells; assay type: cell-based
T1 construct: in frame to the 5′-end of the full length P450 cDNA; made in house; host or cells: E. coli JM109, membrane fractions
Method: Assays on whole cells were carried out at 37° C. in 50 ml conical flasks, and contained 50 pmol CYP2D6, 50 μM (±)-bufuralol and 1×TSE buffer in a total volume of 5 ml. Samples (300 μl) were withdrawn at 0, 2, 5 and 10 min into tubes containing 15 μl of 60% perchloric acid on ice. Analysis then proceeded in an identical manner to the membrane assays (see above).

[2] = target: T2, human P450 reductase fused at its N-terminus to the bacterial pelB leader sequence, P16435
T2 chain: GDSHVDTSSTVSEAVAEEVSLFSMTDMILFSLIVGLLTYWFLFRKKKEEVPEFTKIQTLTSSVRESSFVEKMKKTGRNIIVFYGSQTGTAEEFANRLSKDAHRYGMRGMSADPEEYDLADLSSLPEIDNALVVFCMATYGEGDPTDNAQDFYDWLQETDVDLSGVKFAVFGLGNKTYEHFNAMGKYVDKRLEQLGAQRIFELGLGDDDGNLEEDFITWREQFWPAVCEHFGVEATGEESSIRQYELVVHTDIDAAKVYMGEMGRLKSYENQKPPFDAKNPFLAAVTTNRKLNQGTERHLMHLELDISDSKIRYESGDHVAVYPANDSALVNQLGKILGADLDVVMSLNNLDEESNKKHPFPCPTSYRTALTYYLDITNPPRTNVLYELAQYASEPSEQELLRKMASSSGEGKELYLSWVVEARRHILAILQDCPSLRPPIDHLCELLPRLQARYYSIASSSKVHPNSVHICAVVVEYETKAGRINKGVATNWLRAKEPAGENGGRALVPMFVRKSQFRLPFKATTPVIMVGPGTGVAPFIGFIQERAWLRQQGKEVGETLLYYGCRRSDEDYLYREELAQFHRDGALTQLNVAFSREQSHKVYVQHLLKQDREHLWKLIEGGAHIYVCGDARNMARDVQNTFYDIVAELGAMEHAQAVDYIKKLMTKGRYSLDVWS

CYP2D6 [3] = target: T1, CYP2D6; assay type: biochemical
Method: Assays on bacterial membrane fractions were carried out at 37° C. in 50 mM potassium phosphate buffer, pH 7.4, containing 20 or 50 pmol CYP2D6, 50 μM (±)-bufuralol, and a NADPH regenerating system (see Example 1) in a total volume of 300 μl. For membranes isolated from cells carrying pCW/ompA-CYP2D6 only (ie. no reductase co-expressed), the NADPH regenerating system was replaced by 100 μM cumene hydroperoxide. Reactions were stopped by the addition of 15 μl of 60% perchloric acid and placed on ice for 5-10 min. Precipitated proteins were removed by centrifugation, and then the supernatants were analysed for 1′-hydroxybufuralol by reversed-phase HPLC, with reference to authentic standard. Separation was achieved using a Spherisorb 5 μm ODS-2 column 25 cm×4.6 mm, and a mobile phase of 0.1 M ammonium acetate (pH 5.0) with a linear gradient of acetonitrile (27 to 51% in 12 min). Detection was by fluorescence using excitation and emission wavelengths of 252 and 302 nm, respectively.
For the determination of Michaelis-Menten kinetic parameters, incubations were carried out for 5 min with 20 pmol CYP2D6 and varying concentrations of substrate (0 to 100 μM). Km and νmax were estimated from double-reciprocal plots of initial reaction velocity versus substrate concentration.

P450 reductase = target: T3, P450 reductase (Homo sapiens, UniProt P16435)
T3 sequence (P16435 with tags, fused parts or gaps): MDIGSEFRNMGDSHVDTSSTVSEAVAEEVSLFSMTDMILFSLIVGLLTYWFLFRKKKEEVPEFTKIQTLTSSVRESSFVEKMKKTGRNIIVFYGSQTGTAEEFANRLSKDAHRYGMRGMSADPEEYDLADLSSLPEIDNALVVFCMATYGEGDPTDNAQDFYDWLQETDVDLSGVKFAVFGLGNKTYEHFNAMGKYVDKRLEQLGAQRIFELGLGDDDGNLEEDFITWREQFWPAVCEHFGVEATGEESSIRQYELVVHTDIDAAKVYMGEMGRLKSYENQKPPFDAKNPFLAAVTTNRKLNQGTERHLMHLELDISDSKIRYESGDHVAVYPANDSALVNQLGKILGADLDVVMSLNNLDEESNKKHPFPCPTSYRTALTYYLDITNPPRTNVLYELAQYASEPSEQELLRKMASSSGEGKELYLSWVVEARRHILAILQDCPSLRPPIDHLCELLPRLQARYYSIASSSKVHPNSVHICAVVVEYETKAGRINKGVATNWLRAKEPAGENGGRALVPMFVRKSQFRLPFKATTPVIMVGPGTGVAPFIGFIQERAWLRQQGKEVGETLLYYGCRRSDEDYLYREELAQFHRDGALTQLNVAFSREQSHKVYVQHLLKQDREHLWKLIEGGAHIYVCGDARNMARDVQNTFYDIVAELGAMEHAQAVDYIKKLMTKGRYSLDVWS
Method: An equal volume of ice-cold distilled water was then added. The CYP3A4 content was determined using Fe^2—CO vs Fe^2+ difference spectra by adding 50 μl whole cell suspension in 1×TSE to 950 μl 100 mM Tris. Cl (pH 7.4), 10 mM CHAPS, 20% v/v glycerol, 1 mM EDTA and reducing by adding a few grains of sodium dithionite. A baseline of zero absorbance was recorded between 500 and 400 nm, then the sample cuvette was bubbled under a steady stream of CO for about 1 minute. A spectrum was then recorded and the yield of spectrally active CYP3A4/1 culture determined. At this stage, an aliquot of whole cells was withdrawn for metabolism studies. […] The CYP3A4 and reductase content of the membranes was determined. The yield of active reductase was evaluated by a spectrophotometric assay, as follows. To 990 μl 50 μM cytochrome c in 0.3 M potassium phosphate buffer (pH 7.7), 1-10 μg membrane protein was added, and a baseline recorded. 50 μM NADPH was added and ΔA550 nm was recorded over time. To determine the P450 contents of membranes, spectra were obtained as for whole cells.

B1: ompA-CYP2D6 (protein)
chain: MGLEALVPLAVIVAIFLLLVDLMHRRQRWAARYPPGPLPLPGLGNLLHVDFQNTPYCFDQLRRRFGDVFSLQLAWTPVVVLNGLAAVREALVTHGEDTADRPPVPITQILGFGPRSQGVFLARYGPAWREQRRFSVSTLRNLGLGKKSLEQWVTEEAACLCAAFANHSGRPFRPNGLLDKAVSNVIASLTCGRRFEYDDPRFLRLLDLAQEGLKEESGFLREVLNAVPVLLHIPALAGKVLRFQKAFLTQLDELLTEHRMTWDPAQPPRDLTEAFLAEMEKAKGNPESSFNDENLRIVVADLFSAGMVTTSTTLAWGLLLMILHPDVQRRVQQEIDDVIGQVRRPEMGDQAHMPYTTAVIHEVQRFGDIVPLGVTHMTSRDIEVQGFRIPKGTTLITNLSSVLKDEAVWEKPFRFHPEHFLDAQGHFVKPEAFLPFSAGRRACLGEPLARMELFLFFTSLLQHFSFSVPTGQPRPSHHGVFAFLVSPSPYELCAVPR
bufuralol 1′-hydroxylase activity, intact E. coli (CYP2D6 [1]): 1.2 nmoles/min/mg protein
turnover number, bufuralol hydroxylation, intact bacteria (CYP2D6 [1]; co-expressed with pelB-reductase, 50 μM bufuralol, no added NADPH): 4.6 min⁻¹
bufuralol 1′-hydroxylase activity, fold higher than average of a panel of human liver microsomes (CYP2D6 [1]; intact E. coli): about 20 fold
CYP2D6-dependent activities on co-expression [2]: couples well with co-expressed reductase, catalysing typical CYP2D6-dependent activities
Vmax of bufuralol 1'-hydroxylation, membranes co-expressing both [2]: 13.3 min⁻¹
bufuralol 1'-hydroxylase specific activity [2]: 1.2 nmoles/min/mg membrane protein
bufuralol 1'-hydroxylation turnover number, intact bacteria [2]: turnover numbers of 4.6 min^-1 and 5.7 min^-1 respectively
bufuralol 1'-hydroxylation turnover number, membranes [2]: turnover numbers of 4.6 min^-1 and 5.7 min^-1 respectively
Km (CYP2D6 [3]): 11.1 µM
Vmax, bufuralol 1′-hydroxylation (CYP2D6 [3]): 13.3 min⁻¹
specific activity, bufuralol hydroxylation (CYP2D6 [3]): 1.2 nmoles/min/mg membrane protein
specific activity, fold higher than the value reported for human liver microsomes (CYP2D6 [3]): 40 fold
cytochrome c reductase activity (P450 reductase): 530 nmol/min/mg
